Source: the supplement of paper PMC6379048

Assays:
Experiment in all cases: Kd (EC50 corrected by depletion factor)
IGF2BP3 = IGF2BP3 (UniProt O00425)
Summary of the method: (§1)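 Over three biological replicates and two independent experiments, proteins captured on NHS-Sepharose beads carrying 5′-amino-C6 RNA oligos were quantified by label-free LC-MS/MS and normalised to the control. Capture lasted 30 min at 4°C and followed a 1 h pre-incubation at 4°C of HEK293-FT lysate (2.5 mg protein/well) with the same oligos in free form (0 nM to 30 μM). EC50 was taken from a four-parameter log-logistic fit, and Kd was EC50 corrected by a protein-dependent depletion factor.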

MRPL22 = MRPL22 (UniProt Q9NWU5)
Summary of the method: as §1

MRPS18A = MRPS18A (UniProt Q9NVS2)
Summary of the method: as §1

RPS13 = RPS13 (UniProt P62277)
Summary of the method: as §1

RPS3A = RPS3A (UniProt P61247)
Summary of the method: as §1

HSP90AB2P = HSP90AB2P (UniProt Q58FF8)
Sequence of HSP90AB2P (Q58FF8 whole entry): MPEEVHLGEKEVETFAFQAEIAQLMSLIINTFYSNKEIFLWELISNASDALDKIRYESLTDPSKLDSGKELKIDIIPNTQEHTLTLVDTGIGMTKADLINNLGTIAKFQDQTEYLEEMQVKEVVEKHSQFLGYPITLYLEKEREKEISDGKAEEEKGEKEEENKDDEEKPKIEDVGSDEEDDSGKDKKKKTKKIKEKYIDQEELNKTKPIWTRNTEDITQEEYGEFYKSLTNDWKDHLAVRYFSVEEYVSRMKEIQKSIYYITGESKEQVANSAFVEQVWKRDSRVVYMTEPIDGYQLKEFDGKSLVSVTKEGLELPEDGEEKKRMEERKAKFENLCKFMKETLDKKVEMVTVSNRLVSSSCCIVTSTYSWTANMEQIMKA
Summary of the method: as §1

SYNCRIP = target: T1, SYNCRIP (UniProt O60506)
T1 sequence: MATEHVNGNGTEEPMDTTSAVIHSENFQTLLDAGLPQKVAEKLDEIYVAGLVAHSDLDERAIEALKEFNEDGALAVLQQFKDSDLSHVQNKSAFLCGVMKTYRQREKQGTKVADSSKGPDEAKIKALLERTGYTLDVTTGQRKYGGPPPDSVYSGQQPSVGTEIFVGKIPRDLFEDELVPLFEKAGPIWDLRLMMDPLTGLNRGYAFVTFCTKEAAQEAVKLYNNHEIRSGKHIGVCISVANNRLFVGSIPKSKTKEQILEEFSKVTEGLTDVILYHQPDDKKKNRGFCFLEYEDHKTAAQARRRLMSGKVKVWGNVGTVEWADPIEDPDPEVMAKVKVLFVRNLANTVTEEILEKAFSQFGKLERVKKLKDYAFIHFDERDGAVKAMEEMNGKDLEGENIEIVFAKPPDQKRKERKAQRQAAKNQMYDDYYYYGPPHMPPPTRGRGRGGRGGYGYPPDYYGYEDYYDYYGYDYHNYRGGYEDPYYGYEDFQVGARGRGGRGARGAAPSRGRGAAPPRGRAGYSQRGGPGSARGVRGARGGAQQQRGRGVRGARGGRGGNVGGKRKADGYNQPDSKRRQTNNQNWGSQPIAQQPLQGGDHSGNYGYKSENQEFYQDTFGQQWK
Summary of the method: as §1

CSTF2T = target: T2, CSTF2T (UniProt Q9H0L4)
T2 sequence: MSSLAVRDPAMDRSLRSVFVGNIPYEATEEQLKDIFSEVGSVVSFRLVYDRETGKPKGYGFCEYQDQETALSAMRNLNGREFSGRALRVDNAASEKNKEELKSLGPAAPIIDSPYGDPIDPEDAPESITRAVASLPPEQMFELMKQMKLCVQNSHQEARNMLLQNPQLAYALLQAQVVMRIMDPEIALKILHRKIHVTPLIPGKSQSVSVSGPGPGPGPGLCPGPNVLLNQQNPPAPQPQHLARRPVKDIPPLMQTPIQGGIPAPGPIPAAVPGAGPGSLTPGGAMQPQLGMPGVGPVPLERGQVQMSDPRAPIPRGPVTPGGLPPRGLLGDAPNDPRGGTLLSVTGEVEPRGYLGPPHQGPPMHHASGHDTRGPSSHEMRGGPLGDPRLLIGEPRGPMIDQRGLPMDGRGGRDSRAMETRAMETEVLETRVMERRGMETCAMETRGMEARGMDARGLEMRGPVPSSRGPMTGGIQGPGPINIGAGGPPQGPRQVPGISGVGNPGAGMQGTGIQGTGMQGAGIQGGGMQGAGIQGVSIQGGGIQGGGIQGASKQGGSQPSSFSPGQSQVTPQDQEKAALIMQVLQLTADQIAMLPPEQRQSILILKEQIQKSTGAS
Summary of the method: as §1

FASTKD2 = target: T3, FASTKD2 (UniProt Q9NYY8)
T3 sequence: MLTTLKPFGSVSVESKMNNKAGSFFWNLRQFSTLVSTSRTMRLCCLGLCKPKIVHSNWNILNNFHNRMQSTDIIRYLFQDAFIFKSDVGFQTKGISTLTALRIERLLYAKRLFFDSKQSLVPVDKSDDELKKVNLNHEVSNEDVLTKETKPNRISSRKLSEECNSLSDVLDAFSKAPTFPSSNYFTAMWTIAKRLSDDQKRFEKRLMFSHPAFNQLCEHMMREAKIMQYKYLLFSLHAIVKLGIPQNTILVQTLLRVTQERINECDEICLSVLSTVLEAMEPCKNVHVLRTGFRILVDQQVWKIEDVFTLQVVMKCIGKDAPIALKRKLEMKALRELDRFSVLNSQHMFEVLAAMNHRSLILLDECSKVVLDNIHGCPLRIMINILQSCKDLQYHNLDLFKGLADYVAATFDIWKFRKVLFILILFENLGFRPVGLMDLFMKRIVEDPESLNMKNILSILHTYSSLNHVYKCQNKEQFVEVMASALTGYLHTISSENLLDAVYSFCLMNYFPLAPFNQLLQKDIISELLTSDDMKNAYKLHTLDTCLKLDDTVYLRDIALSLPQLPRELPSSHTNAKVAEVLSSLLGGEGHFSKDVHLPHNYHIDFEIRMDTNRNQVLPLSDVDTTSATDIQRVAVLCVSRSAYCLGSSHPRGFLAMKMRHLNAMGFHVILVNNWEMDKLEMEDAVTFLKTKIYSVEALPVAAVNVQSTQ
Summary of the method: as §1

HNRNPA2B1 = HNRNPA2B1 (UniProt P22626)
Sequence of HNRNPA2B1 (P22626 whole entry): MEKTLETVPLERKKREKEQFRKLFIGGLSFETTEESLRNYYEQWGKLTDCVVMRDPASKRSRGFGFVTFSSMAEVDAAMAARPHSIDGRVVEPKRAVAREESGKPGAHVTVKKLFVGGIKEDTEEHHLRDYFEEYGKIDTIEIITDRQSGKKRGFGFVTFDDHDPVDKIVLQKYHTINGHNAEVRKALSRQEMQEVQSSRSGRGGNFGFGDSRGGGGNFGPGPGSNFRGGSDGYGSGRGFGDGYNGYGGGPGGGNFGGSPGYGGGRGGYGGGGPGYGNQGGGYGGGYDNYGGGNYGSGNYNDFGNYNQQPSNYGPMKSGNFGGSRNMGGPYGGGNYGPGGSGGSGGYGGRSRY
Summary of the method: as §1

MRPS18B = MRPS18B (UniProt Q9Y676)
Summary of the method: as §1

MRPS26 = MRPS26 (UniProt Q9BYN8)
Summary of the method: as §1

MRPS31 = MRPS31 (UniProt Q92665)
Summary of the method: as §1

ZNFX1 = ZNFX1 (UniProt Q9P2E3)
Sequence of ZNFX1 (Q9P2E3 whole entry): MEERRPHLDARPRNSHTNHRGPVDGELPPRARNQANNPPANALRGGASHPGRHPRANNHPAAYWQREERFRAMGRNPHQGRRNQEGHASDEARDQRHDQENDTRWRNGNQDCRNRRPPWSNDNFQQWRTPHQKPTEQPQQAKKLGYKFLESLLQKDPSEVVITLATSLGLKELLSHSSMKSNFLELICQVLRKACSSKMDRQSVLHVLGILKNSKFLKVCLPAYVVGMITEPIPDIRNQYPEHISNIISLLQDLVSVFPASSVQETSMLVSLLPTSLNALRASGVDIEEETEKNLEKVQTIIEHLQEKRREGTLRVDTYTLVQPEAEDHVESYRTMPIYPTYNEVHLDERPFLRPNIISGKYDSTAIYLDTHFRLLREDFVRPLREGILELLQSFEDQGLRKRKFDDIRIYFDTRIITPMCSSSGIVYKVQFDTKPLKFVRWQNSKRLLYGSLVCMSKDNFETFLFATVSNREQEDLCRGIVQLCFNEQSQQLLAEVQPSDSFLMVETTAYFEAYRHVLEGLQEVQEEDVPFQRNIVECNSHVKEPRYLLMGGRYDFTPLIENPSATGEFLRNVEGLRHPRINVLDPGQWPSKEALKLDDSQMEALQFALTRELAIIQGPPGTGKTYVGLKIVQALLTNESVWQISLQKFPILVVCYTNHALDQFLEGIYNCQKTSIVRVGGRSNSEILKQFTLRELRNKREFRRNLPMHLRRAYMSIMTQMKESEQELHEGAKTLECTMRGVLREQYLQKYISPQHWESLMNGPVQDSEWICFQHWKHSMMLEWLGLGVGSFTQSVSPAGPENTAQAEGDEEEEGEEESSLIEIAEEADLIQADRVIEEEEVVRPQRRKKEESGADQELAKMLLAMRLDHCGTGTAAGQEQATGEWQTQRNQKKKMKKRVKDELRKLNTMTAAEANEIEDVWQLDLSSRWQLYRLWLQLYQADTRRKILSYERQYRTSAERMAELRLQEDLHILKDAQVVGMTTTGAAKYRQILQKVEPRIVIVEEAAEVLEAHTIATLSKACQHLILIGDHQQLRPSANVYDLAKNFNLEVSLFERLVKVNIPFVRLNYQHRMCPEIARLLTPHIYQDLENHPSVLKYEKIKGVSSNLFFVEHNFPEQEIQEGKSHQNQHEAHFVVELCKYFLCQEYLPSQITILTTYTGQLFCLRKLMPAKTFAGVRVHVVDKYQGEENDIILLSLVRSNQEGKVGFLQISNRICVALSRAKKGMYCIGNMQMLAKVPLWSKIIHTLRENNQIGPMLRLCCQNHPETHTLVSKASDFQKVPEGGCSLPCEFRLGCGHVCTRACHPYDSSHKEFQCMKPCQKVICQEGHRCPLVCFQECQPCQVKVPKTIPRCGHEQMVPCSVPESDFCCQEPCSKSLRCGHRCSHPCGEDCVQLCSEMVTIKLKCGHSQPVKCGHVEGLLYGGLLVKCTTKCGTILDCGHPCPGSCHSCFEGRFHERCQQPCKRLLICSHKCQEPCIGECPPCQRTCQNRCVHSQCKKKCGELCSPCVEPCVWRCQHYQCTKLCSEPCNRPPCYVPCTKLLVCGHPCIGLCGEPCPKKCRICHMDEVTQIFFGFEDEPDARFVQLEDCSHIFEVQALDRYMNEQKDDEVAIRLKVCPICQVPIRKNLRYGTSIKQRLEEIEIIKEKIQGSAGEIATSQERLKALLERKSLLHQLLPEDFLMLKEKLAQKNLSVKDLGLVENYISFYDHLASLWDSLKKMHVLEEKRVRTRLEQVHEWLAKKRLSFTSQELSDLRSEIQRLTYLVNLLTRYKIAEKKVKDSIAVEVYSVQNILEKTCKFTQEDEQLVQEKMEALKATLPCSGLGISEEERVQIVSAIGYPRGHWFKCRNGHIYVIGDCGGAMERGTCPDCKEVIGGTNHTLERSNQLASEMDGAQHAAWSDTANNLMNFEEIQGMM
Summary of the method: as §1

Sequence of IGF2BP3 (O00425 whole entry): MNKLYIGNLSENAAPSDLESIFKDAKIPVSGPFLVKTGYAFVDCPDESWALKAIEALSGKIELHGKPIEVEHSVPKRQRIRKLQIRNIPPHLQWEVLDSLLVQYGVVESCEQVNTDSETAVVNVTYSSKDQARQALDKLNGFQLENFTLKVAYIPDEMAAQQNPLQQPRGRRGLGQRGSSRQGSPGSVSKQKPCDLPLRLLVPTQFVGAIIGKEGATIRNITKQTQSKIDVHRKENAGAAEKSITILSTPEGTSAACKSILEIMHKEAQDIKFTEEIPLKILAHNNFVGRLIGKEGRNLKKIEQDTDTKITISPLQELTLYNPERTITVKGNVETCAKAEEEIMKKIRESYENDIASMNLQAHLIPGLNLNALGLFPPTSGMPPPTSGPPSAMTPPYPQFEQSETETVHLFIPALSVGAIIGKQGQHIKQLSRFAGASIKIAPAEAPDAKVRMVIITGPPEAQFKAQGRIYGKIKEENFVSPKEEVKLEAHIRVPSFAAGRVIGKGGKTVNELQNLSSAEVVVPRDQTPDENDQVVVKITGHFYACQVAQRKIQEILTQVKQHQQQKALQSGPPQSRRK

CUGUCCU was tested, and the Kd (IGF2BP3) was 0.685 µM, the Kd (MRPL22) was 0.0674 µM and the Kd (MRPS18A) was 0.0239 µM. It also gave a Kd (RPS13) of 0.0399 µM and a Kd (RPS3A) of 0.0642 µM.
AAUAAA showed a Kd (HSP90AB2P) of 0.108 µM and a Kd (SYNCRIP) of 0.252 µM.
Work on UAUUUAU yielded a Kd (CSTF2T) of 0.257 µM, a Kd (FASTKD2) of 3.89 µM and a Kd (HNRNPA2B1) of 4.9 µM. For the same sequence, the Kd (MRPS18B) was 0.0529 µM, the Kd (MRPS26) was 0.0159 µM and the Kd (MRPS31) was 0.0524 µM. For the same sequence, the Kd (ZNFX1) was 0.374 µM.
